Experimental data published in patent publication US20120114659A1 (published 2012).

Target: T1, human NPRA on HEK cells loaded with BNP (human, UniProt P16860 103-134)
T1 sequence: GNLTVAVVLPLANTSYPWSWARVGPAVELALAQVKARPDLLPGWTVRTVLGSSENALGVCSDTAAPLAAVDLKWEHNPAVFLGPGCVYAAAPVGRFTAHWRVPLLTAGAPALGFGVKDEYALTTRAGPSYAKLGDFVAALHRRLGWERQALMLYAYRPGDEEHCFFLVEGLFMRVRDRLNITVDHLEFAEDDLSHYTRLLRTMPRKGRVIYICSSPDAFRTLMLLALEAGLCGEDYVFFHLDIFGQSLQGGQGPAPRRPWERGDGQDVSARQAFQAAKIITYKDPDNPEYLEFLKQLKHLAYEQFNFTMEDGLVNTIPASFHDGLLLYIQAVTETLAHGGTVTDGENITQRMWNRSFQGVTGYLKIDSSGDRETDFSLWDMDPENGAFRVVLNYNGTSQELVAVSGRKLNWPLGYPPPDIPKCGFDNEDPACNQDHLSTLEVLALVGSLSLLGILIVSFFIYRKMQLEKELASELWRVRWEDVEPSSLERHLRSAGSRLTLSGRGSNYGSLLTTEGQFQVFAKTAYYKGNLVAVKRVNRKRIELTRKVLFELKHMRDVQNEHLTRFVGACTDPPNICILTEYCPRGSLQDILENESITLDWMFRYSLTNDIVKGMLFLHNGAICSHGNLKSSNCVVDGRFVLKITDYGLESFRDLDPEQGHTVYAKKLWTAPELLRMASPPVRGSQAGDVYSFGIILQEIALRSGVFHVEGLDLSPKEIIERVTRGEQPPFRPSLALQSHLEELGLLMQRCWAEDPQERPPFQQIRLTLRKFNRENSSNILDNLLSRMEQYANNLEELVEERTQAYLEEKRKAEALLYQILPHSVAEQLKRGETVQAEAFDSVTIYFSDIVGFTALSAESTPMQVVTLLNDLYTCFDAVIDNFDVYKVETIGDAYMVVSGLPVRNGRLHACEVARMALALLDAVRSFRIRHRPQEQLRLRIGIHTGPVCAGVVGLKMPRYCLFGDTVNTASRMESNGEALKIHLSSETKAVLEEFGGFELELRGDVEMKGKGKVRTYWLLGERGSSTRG
T1 sequence (peptide): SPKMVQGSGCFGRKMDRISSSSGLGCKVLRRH
Experiment: cell-based or functional assay

B1: 5064 Fab (Fab, V domains shown)
VH: QVQLQQSGPGLVKPSQTLSLTCAISGDSVSSRSASWSWIRQSPGRGLEWLGRIYYRSKWYNDYAVSVKSRITINPDTSKNQFSLQLNSVTPEDTAVYYCARMDVPSFRYFDVWGQGTLVTVSS
VL: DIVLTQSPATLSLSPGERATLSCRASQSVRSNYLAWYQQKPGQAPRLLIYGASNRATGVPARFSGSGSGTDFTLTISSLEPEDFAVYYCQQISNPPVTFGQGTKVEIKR
In the case of B1, the “fold decrease of the EC50 of BNP (cGMP, HEK NPRA cells, 400 nM Fab)” value is reported as 2 fold.
